In patent US20200231974A1 (published 2020):

T1: HCMV pp65 peptide on HLA-B*07:02 (human)
T1 peptide: TPRVTGGGAM

B1: HBD4.1.S9-5.E3 (SEQ0717 and SEQ0718) (TCR, V domains shown)
Valpha: SQQGEEDPQALSIQEGENATMNCSYKTSINNLQWYRQNSGRGLVHLILIRSNEREKHSGRLRVTLDTSKKSSSLLITASRAADTASYFCATELRMDSSYKLIFGSGTRLLVRP
Vbeta: DTGVSQNPRHKITKRGQNVTFRCDPISEHNRLYWYRQTLGQGPEFLTYFQNEAQLEKSRLLSDRFSAERPKGSFSTLEIQRTEQGDSAMYLCASSLREGRLPETQYFGPGTRLLVL
B2: HBD4.1.S9-7.C5 (SEQ0715 and SEQ0716) (TCR, V domains shown)
Valpha: AQSVAQPEDQVNVAEGNPLTVKCTYSVSGNPYLFWYVQYPNRGLQFLLKYITGDNLVKGSYGFEAEFNKSQTSFHLKKPSALVSDSALYFCAVRSRMDSSYKLIFGSGTRLLVRP
Vbeta: DTGVSQNPRHKITKRGQNVTFRCDPISEHNRLYWYRQTLGQGPEFLTYFQNEAQLEKSRLLSDRFSAERPKGSFSTLEIQRTEQGDSAMYLCASSPPDAAYNEQFFGPGTRLTVL
B3: HBD4.1.S9-1.D5 (SEQ0707 and SEQ0708) (TCR, V domains shown)
Valpha: DAKTTQPPSMDCAEGRAANLPCNHSTISGNEYVYWYRQIHSQGPQYIIHGLKNNETNEMASLIITEDRKSSTLILPHATLRDTAVYYCIVRDRYNTGNQFYFGTGTSLTVIP
Vbeta: EAQVTQNPRYLITVTGKKLTVTCSQNMNHEYMSWYRQDPGLGLRQIYYSMNVEVTDKGDVPEGYKVSRKEKRNFPLILESPSPNQTSLYFCASSLGPSSYEQYFGPGTRLTVT
B4: HBD4.1.S9-2.A6 (SEQ0709 and SEQ0710) (TCR, V domains shown)
Valpha: AQKITQTQPGMFVQEKEAVTLDCTYDTSDQSYGLFWYKQPSSGEMIFLIYQGSYDEQNATEGRYSLNFQKARKSANLVISASQLGDSAMYFCAMREGMDSSYKLIFGSGTRLLVRP
Vbeta: DTGVSQNPRHKITKRGQNVTFRCDPISEHNRLYWYRQTLGQGPEFLTYFQNEAQLEKSRLLSDRFSAERPKGSFSTLEIQRTEQGDSAMYLCASSLHDRGARTEAFFGQGTRLTVV
B5: HBD4.1.S9-7.E5 (SEQ0713 and SEQ0714) (TCR, V domains shown)
Valpha: AQKITQTQPGMFVQEKEAVTLDCTYDTSDQSYGLFWYKQPSSGEMIFLIYQGSYDEQNATEGRYSLNFQKARKSANLVISASQLGDSAMYFCAMRPYTGGFKTIFGAGTRLFVKA
Vbeta: EAQVTQNPRYLITVTGKKLTVTCSQNMNHEYMSWYRQDPGLGLRQIYYSMNVEVTDKGDVPEGYKVSRKEKRNFPLILESPSPNQTSLYFCASSTSPSTARYGYTFGSGTRLTVV

Target: T1, HCMV pp65 peptide on HLA-B*07:02
Test: multimer staining

Row | Binder | binding result
1 | B1 | recognises
2 | B2 | recognises
3 | B3 | recognises
4 | B4 | recognises
5 | B5 | recognises
